The supplement of paper PMC7125110
± gives the standard error. Variants at the floor of the assay were thinned out.

B1: glmS ribozyme (parent)
chain: AUAAAAGCGCCAGAACUACAGAAAUGUAGUUGACGAGGAGGAGGUUUAUCGAAUUUUCGGCGGAUGCCUCCAAA

How the values were obtained:
Settings in all cases: with glucosamine-6-phosphate
[1] = variants of: B1; test: self-cleavage kobs at 40 uM GlcN6P; higher = faster cleavage; RNA array
Outline: (§1)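 kobs was derived by fitting per-tile medians to one- or two-exponential decays after normalising signals to baseline and to non-cleaving reference variants. Those signals came from barcoded ribozyme variants transcribed in situ by E. coli RNA polymerase on sequenced MiSeq chips, followed through a hybridised Cy3 probe at 37 °C and imaged over ~14 h. Glucosamine-6-phosphate (40 μM to 10 mM) in HEPES/KCl/Mg(OAc)2 buffer was flowed in. Weighted Michaelis–Menten fits across concentrations then gave kcat and KM.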

[2] = variants of: B1; test: self-cleavage kobs at 160 uM GlcN6P; higher = faster cleavage; RNA array
Outline: as §1

[3] = variants of: B1; test: self-cleavage kobs at 640 uM GlcN6P; higher = faster cleavage; RNA array
Outline: as §1

[4] = variants of: B1; test: self-cleavage kobs at 10000 uM GlcN6P; higher = faster cleavage; RNA array
Outline: as §1

[5] = variants of: B1; test: self-cleavage kobs at 2500 uM GlcN6P; higher = faster cleavage; RNA array
Outline: as §1

Variant | self-cleavage kobs at 40 uM GlcN6P [1] | self-cleavage kobs at 160 uM GlcN6P [2] | self-cleavage kobs at 640 uM GlcN6P [3] | self-cleavage kobs at 10000 uM GlcN6P [4] | self-cleavage kobs at 2500 uM GlcN6P [5]
A33U U46A U47G | < 1e-05 s⁻¹ |  |  |  | 
G41C A48U | < 1e-05 s⁻¹ | < 1e-05 s⁻¹ | < 1e-05 s⁻¹ |  | 
A6C G44U G51A | < 1e-05 s⁻¹ |  |  | < 1e-05 s⁻¹ | 
G40A A53G | 0.000243 ± 5.3e-05 s⁻¹ |  | 0.0022 ± 0.0005 s⁻¹ | 0.0242 ± 0.0054 s⁻¹ | 0.00571 ± 0.0011 s⁻¹
C11A G59A G60A A64U | < 1e-05 s⁻¹ |  |  |  | 
U31G C34U | < 1e-05 s⁻¹ | < 1e-05 s⁻¹ | < 1e-05 s⁻¹ | < 1e-05 s⁻¹ | 
C61G C70U | < 1e-05 s⁻¹ |  |  | < 1e-05 s⁻¹ | 
G44A G63A | < 1e-05 s⁻¹ | < 1e-05 s⁻¹ | < 1e-05 s⁻¹ |  | < 1e-05 s⁻¹
G62C A64G | < 1e-05 s⁻¹ |  | < 1e-05 s⁻¹ | < 1e-05 s⁻¹ | 
C10G G41C | < 1e-05 s⁻¹ | < 1e-05 s⁻¹ | < 1e-05 s⁻¹ | < 1e-05 s⁻¹ | < 1e-05 s⁻¹
A12U G40A U45C | 6.12e-05 ± 2e-05 s⁻¹ |  |  | 0.00175 ± 0.0003 s⁻¹ | 
U47A U54G | 0.0005 ± 0.00016 s⁻¹ |  | 0.0103 ± 0.0034 s⁻¹ |  | 0.00345 ± 0.0016 s⁻¹
A6G C50G C58G | 0.000111 ± 2.7e-05 s⁻¹ | 0.000451 ± 0.0001 s⁻¹ |  |  | 
G9A U30C U31C C50A | < 1e-05 s⁻¹ | < 1e-05 s⁻¹ | < 1e-05 s⁻¹ | < 1e-05 s⁻¹ | 
G7U C10A A12U A36G C50G | 0.000144 ± 2.8e-05 s⁻¹ |  | 0.0003 ± 0.0001 s⁻¹ | 0.000157 ± 3.1e-05 s⁻¹ | 
G9A G37A | < 1e-05 s⁻¹ | < 1e-05 s⁻¹ | < 1e-05 s⁻¹ | < 1e-05 s⁻¹ | < 1e-05 s⁻¹
U49C G66C | < 1e-05 s⁻¹ | < 1e-05 s⁻¹ | < 1e-05 s⁻¹ | < 1e-05 s⁻¹ | 
A14U G41A G44A G60A | < 1e-05 s⁻¹ |  |  |  | 
A15C U31C G51C U56G C70G | < 1e-05 s⁻¹ |  |  | < 1e-05 s⁻¹ | 
A36G G62U | < 1e-05 s⁻¹ |  | < 1e-05 s⁻¹ | < 1e-05 s⁻¹ | < 1e-05 s⁻¹
C8G G13A G37U G44C A53U G63U | < 1e-05 s⁻¹ |  |  |  | 
A14G G40A A53U | 0.000596 ± 0.00013 s⁻¹ |  |  | 0.0182 ± 0.004 s⁻¹ | 
A48C C71A | < 1e-05 s⁻¹ | < 1e-05 s⁻¹ |  | 4.23e-05 ± 1e-05 s⁻¹ | 3.84e-05 ± 1.4e-05 s⁻¹

Variant | self-cleavage kobs at 40 uM GlcN6P [1] | self-cleavage kobs at 160 uM GlcN6P [2] | self-cleavage kobs at 640 uM GlcN6P [3] | self-cleavage kobs at 10000 uM GlcN6P [4] | self-cleavage kobs at 2500 uM GlcN6P [5]
A6G A14C C34A C68A | < 1e-05 s⁻¹ |  |  |  | 
A6U C11U G13A | < 1e-05 s⁻¹ |  |  | < 1e-05 s⁻¹ | 
G9A G41U | < 1e-05 s⁻¹ | < 1e-05 s⁻¹ | < 1e-05 s⁻¹ |  | < 1e-05 s⁻¹
A15C U56G | 6.11e-05 ± 1.3e-05 s⁻¹ | 7.19e-05 ± 1.9e-05 s⁻¹ | 0.000276 ± 8.7e-05 s⁻¹ | 0.00228 ± 0.00048 s⁻¹ | 0.0011 ± 0.00025 s⁻¹
G9U G29C U30C | < 1e-05 s⁻¹ | < 1e-05 s⁻¹ | < 1e-05 s⁻¹ | < 1e-05 s⁻¹ | < 1e-05 s⁻¹
G9C C11G G40A | < 1e-05 s⁻¹ |  |  | < 1e-05 s⁻¹ | 
G32U A39U G60A C67U | < 1e-05 s⁻¹ |  |  | < 1e-05 s⁻¹ | 
C10G U47A | < 1e-05 s⁻¹ | < 1e-05 s⁻¹ | < 1e-05 s⁻¹ |  | 
A6G A52G | < 1e-05 s⁻¹ | < 1e-05 s⁻¹ |  |  | 
C10G A14C | < 1e-05 s⁻¹ |  |  | < 1e-05 s⁻¹ | 
G44U A53C C58U C71U | < 1e-05 s⁻¹ | < 1e-05 s⁻¹ | < 1e-05 s⁻¹ | < 1e-05 s⁻¹ | < 1e-05 s⁻¹
G7A U30A U45C | < 1e-05 s⁻¹ |  |  | < 1e-05 s⁻¹ | < 1e-05 s⁻¹
C10U G38U G41A | < 1e-05 s⁻¹ |  |  |  | 
C34U G37C A53G | < 1e-05 s⁻¹ |  |  |  | 
A33G C34U C68U | < 1e-05 s⁻¹ |  |  |  | 
C34U U45A | < 1e-05 s⁻¹ | < 1e-05 s⁻¹ | < 1e-05 s⁻¹ | < 1e-05 s⁻¹ | < 1e-05 s⁻¹
G35C A48U | < 1e-05 s⁻¹ |  |  | < 1e-05 s⁻¹ | < 1e-05 s⁻¹
G9A C61A | < 1e-05 s⁻¹ | < 1e-05 s⁻¹ | < 1e-05 s⁻¹ | < 1e-05 s⁻¹ | < 1e-05 s⁻¹
U46G U65A C70U | 8.31e-05 ± 1.9e-05 s⁻¹ |  |  | 0.00117 ± 0.00024 s⁻¹ | 
C8A G40U C61U U69G | < 1e-05 s⁻¹ |  |  | < 1e-05 s⁻¹ | 
G7A C58U C68G | 0.000285 ± 7.7e-05 s⁻¹ |  |  |  | 
G40U G44C | < 1e-05 s⁻¹ | < 1e-05 s⁻¹ | < 1e-05 s⁻¹ |  | 
A15G U31C | 0.000207 ± 3.4e-05 s⁻¹ | 0.00035 ± 8.7e-05 s⁻¹ | 0.00208 ± 0.00026 s⁻¹ | 0.0123 ± 0.0028 s⁻¹ | 0.00542 ± 0.0013 s⁻¹
